Test: yeast display, Sf9 membrane polyspecificity reagent, FACS + sequencing; frameworks hold sequencing errors
How it was run: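 A nanobody's polyreactivity label depends on the gate it was sorted from. Yeast display cells were stained with 10% biotinylated, detergent-solubilized Sf9 membrane reagent for 1 hour at 4 °C, enriched on streptavidin microbeads and sorted by FACS. The low and high (top ~1%) gates were set on anti-HA fluorescence for expression and streptavidin fluorescence for reagent binding.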

Sequence	polyreactivity (PSR sort gate)
QVQLVESGGGLVQAGGSLRLSCAAYGSIFTRYAMGWYIQAPGKERELVAAISKRGGRTYYADSVKGRFTISRDNAKNTVYLQMNSLKPEDTAVYYCNAGSYDYYDGSWSYDYWGQGTQVTVSS	high polyreactivity
QVQLVESGGGLVQAGGSLRLSCAAYGSIFYFNAMGWYRQAPGKERELVAAITYNGGSTRYADSVKGRFTISRDNAKNTVYLQMNSLKPEDTAVYYCAARAKYGPEDGYWGQGTQVTVSS	high polyreactivity
QVQLVESGGGLVQAGGSLRLSCAAYGSIFYYYAKGWYRQAPGKERELVAAINGGDTYYADSVKGRFTISRDNAKNTVYLHMNSLKPEDTAVYYCAAEGVTVEWDYDYWGQGTQVTVSS	low polyreactivity
QVQLVESGGGLVQAGGSLRLSCAAYGSTFDRNAMGWYRQAPGKERDLVAAISWRGGSTYYSDSVKGRFTISRDNAKNTVYLQMNSLKPDDTAVYYCNKVVTWQGPYDYWGQGTQVTVSS	high polyreactivity
QVQLVESGGGLVQAGGSLRLSCAAYGSTFDRNVMGWYRQAPGKERELVAAISRVSSTNYADSVKGRFTISRDNAKNTVYLQMNSLKPEDTAVYYCAADRPGSIMNYWGQGTQVTVSS	low polyreactivity
QVQLVESGGGLVQAGGSLRLSCAAYGSTFKPYAMGRYRQAPGKERELVADITGGGSTNYADSVKGRFTISRDNAKNTVYLQMNSLKPEDTAVYYCNADPVRSTYSYDYWGQGTQVTVSS	low polyreactivity
QVQLVESGGGLVQAGGSLRLSCAAYGSTFTYYAMGWYRQAPGKERELVAAISSSGGSTYYADSVKGRFTISRDNAKNTVYFQMNSLKPEDTAVYYCAARRKFPYRHDYWGQGTQVTVSS	high polyreactivity
QVQLVESGGGLVQAGGSLRLSCAAYGSTFVSNAMGWSRPAPGKERELVAAISSSGGSTYYADSVKGRFTISRDTATNTVYLQMNSLKPEDTAVYYCVDYYNGYTHNYNYWGQGTQVTVSA	low polyreactivity
QVQLVESGGGLVQAGGSLRLSCAAYGSTFWVYAMVWYRQAPGKERELVAAIDYSGGSTYYADSVKGRFTISRDNAKNNVYLQMNSLKPEDTAVYYCAAGEGQYWLWDGEGEYDYWGQGTQVTVSS	low polyreactivity
QVQLVESGGGLVQAGGSLRLSCAAYGYIFIRNAMGCYRQAPGKERELVAAISWTGGNTYYADSVKGRFTISRDNAKNTVYLQMNSLIPEDTAVYYCAAQRSVFKSFRTTYVSYDYWGQGTQVTVSS	high polyreactivity
QVQLVESGGGLVQAGGSLRLSCADSARTFYTNAKGWYRQAPGKERELVAAITGSDGNTYYADSVKGRFTISRDNAKNTVYLQMISLKPEDTAVYYGYDYWVQGTQVTVSS	low polyreactivity
QVQLVESGGGLVQAGGSLRLSCADSGFIFYFYTKGCYIQSPGKDRELVSGITWLDGSTYYADSVKGRFTISRDNAKNTVYLQMNSLKPEDTAVYYCNRDQWPWESGYAYNYWGQGTQVTVSS	low polyreactivity
QVQLVESGGGLVQAGGSLRLSCADSGFTFVEYAMGWYRQAPGKERELVAAITRSGTRTYYADSVKGRFTISRDNAKNTVYLQMNSLKPEDTAVYYCNKPYSKTNHYDSWGQGTQVTVSS	high polyreactivity
QVQLVESGGGLVQAGGSLRLSCADSGIIFHEYAMGWYRQAPGKERELVASISWNDGSTYADSVKGRFTISRDNAKNTVYLQMNSLKPEDTAVYYCAADYPYYPFSSIYDYWGQGTQVTVSS	low polyreactivity
QVQLVESGGGLVQAGGSLRLSCADSGIIFITNAMGWYRQAPGKERELVAAISSTVSTNYADSVKGRFTISRDNAKNTVYLQMNSLIQEDTAVYFCAAEWGLTQGESIYDFWGQGTQVTVSS	low polyreactivity
QVQLVESGGGLVQAGGSLRLSCADSGIIFNYYAMGWSRQAPGKEREFVASITSSGSSTYYADSVKGRFTITRDNAKNTVYLQMNSLKPEDTAVYYCAARYLWPKQGGGWGYYSCGQGTQVTVSS	high polyreactivity
QVQLVESGGGLVQAGGSLRLSCADSGIIFTQYAMGWYRQAPGKERELVAGISKSGGSTYYADSVKGRFTISRDNAKNTVYLQMNSLKPEDTAVYYCAAPVPKTDKLLRMYYWGQGTQVTVSS	high polyreactivity
QVQLVESGGGLVQAGGSLRLSCADSGITFSRNAMGWYRQAPGKEMELVATITSGGSTNYADSVKGRFTISRDNAKNTVYLQMNSLKPEDTAVYYCNAVWNTFISGRSYDYWGQGTQVTVSS	low polyreactivity
QVQLVESGGGLVQAGGSLRLSCADSGITFWKYAMGWYRQAPGKERELVAAISGRGGSTYYADSVKGRFTISRDNAKNTVYLQMNSLKPEDTAVYYCAKYPGISGYNYWGQGTQVTVSS	high polyreactivity
QVQLVESGGGLVQAGGSLRLSCADSGITLYEYAMGWYRKAPGKERELVAAISTSGGRTRYADSVKGRFTISRDNAKNTVYLQMNSLKPEDTAVYYCAASGFVQISNPRRDYWGLGTQVTVSS	high polyreactivity
QVQLVESGGGLVQAGGSLRLSCADSGLIFKSYAMGWYRQARGKERELVAAISGNDGSTYYADSVKGRFTISRDNAKNTVYLQMNSLKPEDTAVYYCAADFSGPWYEYTFNYCGQGTQVTVSS	high polyreactivity

Sequence	polyreactivity (PSR sort gate)
QVQLVESGGGLVQAGGSLRLSCADSGLIFYRYAMGWYRQAPGTERELVAAISGSVGSTYADSVKGRFTISRDNAKNTVYLQMNSLKPEDTVVYYCSRETYRSYGAYDYWGLGTQVTVSS	low polyreactivity
QVQLVESGGGLVQAGGSLRLSCADSGLILHKYAMGWYRQAPGKDRELVASINSGANTNYADSVKGRFTISRDNAKNTVYLQMNSLKPEDSAEYYCNADPGFRSGEYGYSSFDYWGQGTQVTVSS	low polyreactivity
QVQLVESGGGLVQAGGSLRLSCADSGLTFEGYAMGWNRQAPGKERELVAAITWSGGNTYYADSVKGRFTSSRDNAKKTVYLQMNSLKPEDTAVYYCAAQRPSRDSRPFEYWGQGTQVTVSS	low polyreactivity
QVQLVESGGGLVQAGGSLRLSCADSGRIFFDYAMGWYRQAPGKERELVAAISYRGGDTYYADSVKGRFTISRDNAKNTVYLQMNSLIPEDTAVYYCAATGGYYEYWGQGTQVTVSS	low polyreactivity
QVQLVESGGGLVQAGGSLRLSCADSGRIFGINAKGWYRQAPGKARELVASISRRVGRTSYADSVKGRFTISRDNAKNTVYLQMNSLKPEDTAGYFCAADVWNDGSWTDYDYWGQGTQVTVSS	high polyreactivity
QVQLVESGGGLVQAGGSLRLSCADSGRIFNPYAMGWYRQAPGKERELVAGISWGGGSTRYADSVKGRFTISRDNAKNTVYLQMNSLKPVDTAVYYCNSGSYYKRFDYWGKGTQVTVSS	high polyreactivity
QVQLVESGGGLVQAGGSLRLSCADSGRIFSSNAIGWYRQAPGQERELVASISSTGSTKYADSVKGRFTISRDNAKNTVYVQMNSLKPEDTAVYYCAAGSYLWHFTFDYWGQGTQVTVSS	low polyreactivity
QVQLVESGGGLVQAGGSLRLSCADSGRIFSWNAMGRYRQAPRKERELVAAISSSGARTYYADSVKGRFTISRDNAKNTVYLQMNSLKPEDTAVYYCIAARSSQHYYSYNYWGQGTQVTVSS	high polyreactivity
QVQLVESGGGLVQAGGSLRLSCADSGRIICWYAMGWYRQAPGKERELVAAISTGSRTYYADSVKGRFTISRDNAKTTVYLQMNSLKPEDTAVYYCAASLYSGYVSWGQGTQVTVSS	low polyreactivity
QVQLVESGGGLVQAGGSLRLSCADSGRILPFYAMGWYRQAPGKERELVADISLSGGDTYYADSVKGRFTISRDNAKNTVYLQMNSLKPEDTAVYYCAKDRYQWLWSPEYDYWGQGTQVTVSS	low polyreactivity
QVQLVESGGGLVQAGGSLRLSCADSGRTFGRNVMGWYRQAPGKERELVASITRSGGSTYYADSVKGRFTISRDTAKNTVYLEMNSLKPEDTAVYYCAKCYYLWCSYWGPSQYDWGQGSQVTVSS	high polyreactivity
QVQLVESGGGLVQAGGSLRLSCADSGRTFRFNTRGWYRQAPGKEWVLVASISSSGGRTYYADSVKGRFTISRDNAKNTLYLQMHSLKPEDTAVYYCAAAAGWGARTSTYCGYDYWGQGTQVTVST	high polyreactivity
QVQLVESGGGLVQAGGSLRLSCADSGRTFSTYAMGWYRQAPGKERELVAAISSGGGRTYYADSVKGRFTISRDNAKNTVYLQINSLKPEDTAVYYCAADRYFRSRRSYEYWGQGTQVTVSS	low polyreactivity
QVQLVESGGGLVQAGGSLRLSCADSGRTNPHYAMGWYRQAPGKESEFVAAISSRGGSTYDADSVKGRFTISRDNAKNTVYVQMNSLKPEDTAVYYCAAQYDGLPRVSYGLGEFGYWGQGSQVTVSS	low polyreactivity
QVQLVESGGGLVQAGGSLRLSCADSGSIFAYAMGCSRQAPRKESELVAGISSSGGRTYYADSVKGRFSISRDNAKNTVYLQMNSLKPEDTAVYYCAAKRWGLYKGYYWGQGTQVTVSS	high polyreactivity
QVQLVESGGGLVQAGGSLRLSCADSGSIFDFNTMGWYRQAPGKERELVAAISQRTGRTYYADSVKGRFTISRDNANNTVYLQMNSLKPEDTADYYCAVVWYDKGRQTRYNSWGQGTQVTVSS	high polyreactivity
QVQLVESGGGLVQAGGSLRLSCADSGSIFFFYAMGWYRQAPGKERELVAAISKSPSSTYYADSVKGRFTISRDNAKNTVYLQMNSLKPEDTAVYYCNTGYSGIQYYYWGQGAQVTVSS	low polyreactivity
QVQLVESGGGLVQAGGSLRLSCADSGSILIHYTMGWYRQEPGKERELVAAISSTGGSTYYADSVKGRFTISRDNAKNTVYLQMNSLKPEDTAVYYCATGPHQPPYSYLDYDYWGQGTQVTVSS	low polyreactivity
QVQLVESGGGLVQAGGSLRLSCADSGSISDYYAMGWYRQAPGKERELVAAISWDGGSTYYADSVKGRFTISRDNAKNTVYLQMNSLKPEDTAVYYCAAVAWEGSGSEMYSWGQGTQVTVSS	low polyreactivity
QVQLVESGGGLVQAGGSLRLSCADSGSTFRPYAMGWNRQAPGKERELVAAISSGDSTYYADSVKGRFTISRDNAKNTVYLQMNSLKPEDTAVYYCAKRKYWHRGGGYWGQGTQVTVSS	high polyreactivity

From the nanobody polyreactivity screen of Harvey et al. (2022)
